T1: denatured human collagen type III (human, UniProt P02461 154-1221, limits assumed)
T1 construct: Bought human collagen III (ab7535, Abcam), denatured at 99 C for 15 minutes and then kept on ice for 5 minutes; also called denatured human collagen III
T1 sequence: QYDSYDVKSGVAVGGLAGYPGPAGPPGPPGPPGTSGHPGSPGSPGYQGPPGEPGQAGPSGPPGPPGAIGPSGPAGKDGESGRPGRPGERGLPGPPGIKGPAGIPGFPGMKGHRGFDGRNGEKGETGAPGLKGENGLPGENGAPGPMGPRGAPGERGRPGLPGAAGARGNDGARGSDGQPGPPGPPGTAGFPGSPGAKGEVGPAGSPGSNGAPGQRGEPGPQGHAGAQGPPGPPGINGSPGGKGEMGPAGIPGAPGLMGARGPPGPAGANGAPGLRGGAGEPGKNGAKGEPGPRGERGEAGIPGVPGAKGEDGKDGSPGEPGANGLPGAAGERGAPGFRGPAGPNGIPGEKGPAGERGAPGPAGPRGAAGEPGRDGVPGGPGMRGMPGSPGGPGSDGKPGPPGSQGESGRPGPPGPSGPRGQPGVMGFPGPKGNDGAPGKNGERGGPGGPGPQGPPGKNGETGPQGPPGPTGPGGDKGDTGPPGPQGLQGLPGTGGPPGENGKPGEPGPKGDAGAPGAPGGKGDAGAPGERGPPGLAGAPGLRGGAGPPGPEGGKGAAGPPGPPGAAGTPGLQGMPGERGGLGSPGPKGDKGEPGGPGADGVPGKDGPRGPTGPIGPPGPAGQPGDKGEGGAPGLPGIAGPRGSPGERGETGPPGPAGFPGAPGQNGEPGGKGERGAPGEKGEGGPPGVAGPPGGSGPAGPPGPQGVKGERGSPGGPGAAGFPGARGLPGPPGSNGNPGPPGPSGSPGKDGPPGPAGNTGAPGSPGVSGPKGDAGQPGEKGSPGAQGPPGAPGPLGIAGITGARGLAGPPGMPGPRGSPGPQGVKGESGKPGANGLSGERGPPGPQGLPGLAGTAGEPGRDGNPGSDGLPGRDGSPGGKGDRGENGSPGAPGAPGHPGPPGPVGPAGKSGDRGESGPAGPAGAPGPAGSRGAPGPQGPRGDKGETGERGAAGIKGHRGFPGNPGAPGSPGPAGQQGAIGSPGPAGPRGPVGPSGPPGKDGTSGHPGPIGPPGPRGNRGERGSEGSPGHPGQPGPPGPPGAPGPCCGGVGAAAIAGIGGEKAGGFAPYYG

B1: P27152798 (antibody, human IgG1, kappa, L234A L235A, V domains shown)
VH: QVTLKESGPALVKPTQTLTLTCTFSGFSLSTPGMGVWWIRQPPGKALEWLADIWWDDNKYTNPSLKSRLTISKDTSKNQVVLTMTNMDPVDTATYYCARRANYGNPYYAQDYWGQGTTVTVSS
VL: DIVMTQTPLSLPVTPGEPASISCRSSQSIVHSNANTYLEWYLQKPGQSPQLLIYKVSNRFSGVPDRFSGSGSGTDFTLKISRVEAEDVGVYYCFQGSHVPWTFGQGTKVEIKR
notes: also called VH chain D3 / VL chain B7A
B2: P27122713 (antibody, human IgG1, kappa, L234A L235A, V domains shown)
VH: QVTLKESGPALVKPTQTLTLTCTFSGFSLSTSGMGVGWIRQPPGKALEWLADIWWDDNKYANPSLKSRLTISKDTSKNQVVLTMTNMDPVDTATYYCARRANYGNPYYAQDYWGQGTTVTVSS
VL: DIVMTQTPLSLPVTPGEPASISCRSSQSIVHSNGNTYLEWYLQKPGQSPQLLIYKVSNRFSGVPDRFSGSGSGTDFTLKISRVEAEDVGVYYCFQGSHVPWTFGQGTKVEIKR
notes: produced by transient transfection in Expi293 cells and purified on MabSelect SuRe; also called VH chain B7 / VL chain B7
B3: P27152716 (antibody, human IgG1, kappa, L234A L235A, V domains shown)
VH: QVTLKESGPALVKPTQTLTLTCTFSGFSLSTPGMGVWWIRQPPGKALEWLADIWWDDNKYTNPSLKSRLTISKDTSKNQVVLTMTNMDPVDTATYYCARRANYGNPYYAQDYWGQGTTVTVSS
VL: DIVMTQTPLSLPVTPGEPASISCRSSQSIVSSWGNTYLEWYLQKPGQSPQLLIYKVSNRFSGVPDRFSGSGSGTDFTLKISRVEAEDVGVYYCFQGSHVPWTFGQGTKVEIKR
notes: produced by transient transfection in Expi293 cells and purified on MabSelect SuRe; also called VH chain D3 / VL chain D3

Biological target: T1, denatured human collagen type III
Assay: ELISA, denatured collagen coated on plate, anti-human IgG peroxidase detection
Procedure: ELISA analysis. The binding activity and specificity of purified antibodies were determined by ELISA. Human collagens I (ab7533, Abcam), III (ab7535, Abcam), IV (ab7536, Abcam), an V (ab7537, Abcam), and mouse collagens I (NBP2-62423, NOVUS) and IV (3410-010-02, R&D) were used in ELISA analysis. “Denatured” collagen samples were prepared by incubation of collagens samples at 99° C. for 15 minutes followed by incubation on ice for 5 minutes Microtiter plates were coated with native or denatured collagen protein overnight at 4° C. The next day, plates were washed with PBS and blocked with 3% non-fat dry milk in PBS or 1% BSA. Serially diluted antibodies were added for binding to the coated antigen. Bound antibodies were detected with peroxidase-conjugated anti-human IgG secondary antibody (Jackson ImmunoResearch).

Binding result, binds:
B1
B2
B3
